In patent US7183387 (Genentech, dated 2007):
Substitutions are numbered along the chain they refer to. In names and notes the source's numbering stands. One block for each binder: values may come before it.

How the values were obtained:
[1] = molecular target: T1, human neonatal Fc receptor (FcRn), biotinylated (human, UniProt P55899 24-297; P61769 21-119, biotinylated (biotin-X-NHS)); assay: FcRn ELISA (E27 background by paragraph 363)
T1 construct: captured on streptavidin plates

[2] = molecular target: T2, human FcγRIA α subunit extracellular domain-His6-GST fusion (human, UniProt P12314 16-292); assay: FcγRI ELISA, E27 background
T2 construct: extracellular domain; also called GST-FcγRIA; CD64; not shown: glutathione S transferase (GST)

[3] = molecular target: T3, human FcγRIIB α subunit extracellular domain-His6-GST fusion (human, UniProt P31994 43-217); assay: immune complex ELISA, E27 background
T3 construct: extracellular domain; also called CD32; not shown: glutathione S transferase (GST)
T3 sequence: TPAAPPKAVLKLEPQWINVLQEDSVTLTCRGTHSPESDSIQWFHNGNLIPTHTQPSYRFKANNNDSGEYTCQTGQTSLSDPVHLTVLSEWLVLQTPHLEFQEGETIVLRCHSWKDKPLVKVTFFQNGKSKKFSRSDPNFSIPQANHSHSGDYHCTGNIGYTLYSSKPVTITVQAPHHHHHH

[4] = molecular target: T4, human FcγRIIA-Arg131 α subunit extracellular domain-His6-GST fusion (human, UniProt P12318 34-217); assay: immune complex ELISA, E27 background
T4 construct: extracellular domain; also called FcγRIIA-R131; not shown: glutathione S transferase (GST)
T4 sequence: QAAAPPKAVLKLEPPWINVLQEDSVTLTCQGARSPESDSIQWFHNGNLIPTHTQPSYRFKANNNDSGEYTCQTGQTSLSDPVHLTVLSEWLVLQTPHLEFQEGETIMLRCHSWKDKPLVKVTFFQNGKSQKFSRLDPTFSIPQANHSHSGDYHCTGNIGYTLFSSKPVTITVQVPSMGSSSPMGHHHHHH

[5] = molecular target: T5, human FcγRIIIA-Phe158 α subunit extracellular domain-His6-GST fusion (human, UniProt P08637 17-208); assay: immune complex ELISA, E27 background
T5 construct: extracellular domain; also called FcγRIIIA-F158; CD16; not shown: glutathione S transferase (GST)

[6] = molecular target: T6, human FcγRIIA-R131 α subunit extracellular domain-6His-GST fusion (human, UniProt P12318 34-217); assay: ELISA, IgG:IgE hexamers on receptor-GST
T6 construct: also called FcγRIIA-Arg131; not shown: glutathione S-transferase (GST)
T6 sequence: T4 sequence

[7] = molecular target: T7, human FcγRIIIA-F158 α subunit extracellular domain-6His-GST fusion (human, UniProt P08637 17-208); assay: ELISA, IgG:IgE hexamers on receptor-GST
T7 construct: also called FcγRIIIA-Phe158; not shown: glutathione S-transferase (GST)

[8] = molecular target: T8, human FcγRIIB α subunit extracellular domain-6His-GST fusion (human, UniProt P31994 43-217); assay: ELISA, IgG:IgE hexamers on receptor-GST
T8 construct: not shown: glutathione S-transferase (GST)
T8 sequence: T3 sequence

[9] = molecular target: T9, human FcRn, biotinylated (human, UniProt P55899 24-297; P61769 21-119, biotinylated (biotin-X-NHS)); assay: ELISA, biotin-FcRn on streptavidin, pH 6.0
T9 construct: Captured on streptavidin plates; IgG added at pH 6.0; also called neonatal Fc receptor
Description: (§1) FcRn Binding ELISA: For measuring FcRn binding activity of IgG variants, ELISA plates were coated with 2 µg/ml streptavidin (Zymed, South San Francisco) in 50 mM carbonate buffer, pH 9.6, at 4° C. overnight and blocked with PBS-0.5% BSA, pH 7.2 at room temperature for one hour. Biotinylated FcRn (prepared using biotin-X-NHS from Research Organics, Cleveland, Ohio and used at 1–2 µg/ml) in PBS-0.5% BSA, 0.05% polysorbate 20, pH 7.2, was added to the plate and incubated for one hour. Two fold serial dilutions of IgG standard (1.6–100 ng/ml) or variants in PBS-0.5% BSA, 0.05% polysorbate 20, pH 6.0, were added to the plate and incubated for two hours. Bound IgG was detected using peroxidase labeled goat F(ab')_2 anti-human IgG F(ab')_2 in the above pH 6.0 buffer (Jackson ImmunoResearch, West Grove, Pa.) followed by 3,3',5,5'-tetramethyl benzidine (Kirgaard & Perry Laboratories) as the substrate. Plates were washed between steps with PBS-0.05% TWEEN 20® at either pH 7.2 or 6.0. Absorbance was read at 450 nm on a Vmax plate reader (Molecular Devices, Menlo Park, Calif.). Titration curves were fit with a four-parameter nonlinear regression curve-fitting program (KaleidaGraph, Synergy software, Reading, Pa.). Concentrations of IgG variants corresponding to the mid-point absorbance of the titration curve of the standard were calculated and then divided by the concentration of the standard corresponding to the mid-point absorbance of the standard titration curve.

[10] = molecular target: T2, human FcγRIA α subunit extracellular …; assay: FcγRI ELISA and THP-1 cells, averaged
[11] = molecular target: T1, human neonatal Fc receptor (FcRn), …; assay: FcRn ELISA, pH 6.0;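 on ratio to native IgG1: Streptavidin-captured FcRn plates, IgG variants titrated 2 h at pH 6.0, peroxidase anti-human IgG read at 450 nm, variant over standard concentration at the standard curve mid-point absorbance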
[12] = molecular target: T3, human FcγRIIB α subunit extracellular …; assay: hexamer ELISA
[13] = molecular target: T4, human FcγRIIA-Arg131 α subunit …; assay: hexamer ELISA
[14] = molecular target: T5, human FcγRIIIA-Phe158 α subunit …; assay: hexamer ELISA
[15] = molecular target: T1, human neonatal Fc receptor (FcRn), …; assay: FcRn ELISA, pH 6.0; remark: listed apart in the source;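 on ratio to native IgG1: Streptavidin-captured FcRn plates, IgG variants titrated 2 h at pH 6.0, peroxidase anti-human IgG read at 450 nm, variant over standard concentration at the standard curve mid-point absorbance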
Description: as §1

[16] = molecular target: T3, human FcγRIIB α subunit extracellular …; assay: hexamer ELISA (row shifted)
[17] = molecular target: T4, human FcγRIIA-Arg131 α subunit …; assay: hexamer ELISA (row shifted)
[18] = molecular target: T5, human FcγRIIIA-Phe158 α subunit …; assay: hexamer ELISA (row shifted)
[19] = molecular target: T2, human FcγRIA α subunit extracellular …; assay: FcγRI ELISA and THP-1 cells, averaged (row shifted)
[20] = molecular target: T10, human FcγRIIA-His131 α subunit extracellular domain-His6-GST fusion (human, UniProt P12318 34-217); assay: hexamer ELISA
T10 construct: extracellular domain; also called FcγRIIA-H131; not shown: glutathione S transferase (GST)
T10 sequence: T4 sequence with R134H

[21] = molecular target: T5, human FcγRIIIA-Phe158 α subunit …; assay: hexamer ELISA; remark: listed apart in the source

T2 sequence (P12314 other isoform, or with tags, fused parts or gaps): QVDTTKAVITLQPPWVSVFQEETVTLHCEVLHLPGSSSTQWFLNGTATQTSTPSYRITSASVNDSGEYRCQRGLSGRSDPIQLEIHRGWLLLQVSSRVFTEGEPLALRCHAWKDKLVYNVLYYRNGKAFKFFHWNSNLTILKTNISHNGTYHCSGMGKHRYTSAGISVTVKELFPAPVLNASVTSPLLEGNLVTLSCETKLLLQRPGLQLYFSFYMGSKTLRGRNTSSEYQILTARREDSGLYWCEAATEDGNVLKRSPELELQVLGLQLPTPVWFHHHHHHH
T7 sequence (P08637 other isoform, or with tags, fused parts or gaps, form in doubt): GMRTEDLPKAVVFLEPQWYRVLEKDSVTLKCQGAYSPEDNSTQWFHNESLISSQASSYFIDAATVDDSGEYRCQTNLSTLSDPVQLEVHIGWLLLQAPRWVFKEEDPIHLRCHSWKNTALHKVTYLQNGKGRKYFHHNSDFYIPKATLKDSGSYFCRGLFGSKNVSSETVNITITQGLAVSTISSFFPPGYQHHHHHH
T5 sequence (P08637 other isoform, or with tags, fused parts or gaps): as the sequence (P08637 other isoform, or with tags, fused parts or gaps, form in doubt) above

B1: recombinant humanized anti-IgE E27 IgG1 (parent antibody) (antibody)
heavy: not shown
light: DIQLTQSPSSLSASVGDRVTITCRASKPVDGEGDSYLNWYQQKPGKAPKLLIYAASYLESGVPSRFSGSGSGTDFTLTISSLQPEDFATYYCQQSHEDPYTFGQGTKVEIKRTVAAPSVFIFPPSDEQLKSGTASVVCLLNNFYPREAKVQWKVDNALQSGNSQESVTEQDSKDSTYSLSSTLTLSKADYEKHKVYACEVTHQGLSSPVTKSFNRGEC
notes: non-A allotype IgG1 Fc; E27 and all its variants were tested as monomers on FcRn and FcγRI and as hexamers with human IgE (3 E27 : 3 IgE) on FcγRIIA, FcγRIIB and FcγRIIIA; also called wt; E27 wildtype
binding result [1]: binds | percentage of the wild type [2]: 100% | percentage of the wild type [3]: 100% | percentage of the wild type [4]: 100% | percentage of the wild type [5]: 100%

B3: E27 IgG1 variant H434(465)A/K288(305)A (antibody)
heavy: not shown
light: B1 light
notes: also called IG2 272; Lys288Ala/Asn434Ala
ratio to native IgG1 [6]: 0.94 | ratio to native IgG1 [7]: 0.88 | ratio to native IgG1 [8]: 0.96 | ratio to native IgG1 [9]: 2.9

B4: anti-IgE E27 IgG1 Glu380Ala (antibody)
heavy: not shown
light: B1 light
ratio to native IgG1 [10]: 1.04 ratio | ratio to native IgG1 [11]: 2.19 ratio | ratio to native IgG1 [12]: 1.07 ratio | ratio to native IgG1 [13]: 1.18 ratio | ratio to native IgG1 [14]: 0.92 ratio | fold better binding than native IgG1 [15]: 2 fold

B6: E27 IgG1 variant E380(405)A/N434(465)A/T307(326)A (antibody)
heavy: EVQLVESGGGLVQPGGSLRLSCAVSGYSITSGYSWNWIRQAPGKGLEWVASIKYSGETKYNPSVKGRITISRDDSKNTFYLQMNSLRAEDTAVYYCARGSHYFGHWHFAVWGQGTLVTVSSASTKGPSVFPLAPSSKSTSGGTAALGCLVKDYFPEPVTVSWNSGALTSGVHTFPAVLQSSGLYSLSSVVTVPSSSLGTQTYICNVNHKPSNTKVDKKVEPKSCDKTHTCPPCPAPELLGGPSVFLFPPKPKDTLMISRTPEVTCVVVDVSHEDPEVKFNWYVDGVEVHNAKTKPREEQYNSTYRVVSVLAVLHQDWLNGKEYKCKVSNKALPAPIEKTISKAKGQPREPQVYTLPPSREEMTKNQVSLTCLVKGFYPSDIAVAWESNGQPENNYKTTPPVLDSDGSFFLYSKLTVDKSRWQQGNVFSCSVMHEALHAHYTQKSLSLSPGK
light: B1 light
notes: also called IG2 270
ratio to native IgG1 [6]: 0.99 | ratio to native IgG1 [7]: 0.96 | ratio to native IgG1 [8]: 0.99 | ratio to native IgG1 [9]: 11.8

B8: E27 IgG1 variant E380(405)A/L309(328)A (antibody)
heavy: not shown
light: B1 light
notes: also called IG2 271
ratio to native IgG1 [6]: 0.98 | ratio to native IgG1 [7]: 0.92 | ratio to native IgG1 [8]: 1.04 | ratio to native IgG1 [9]: 0.9

B9: anti-IgE E27 IgG1 Asp270Ala (antibody)
heavy: not shown
light: B1 light
notes: also called D270(283)A
ratio to native IgG1 [10]: 0.76 ratio | reduction in binding against native IgG1 [20]: 50% | ratio to native IgG1 [11]: 1.05 ratio | ratio to native IgG1 [12]: 0.1 ratio | ratio to native IgG1 [13]: 0.06 ratio | ratio to native IgG1 [14]: 0.14 ratio

B10: E27 IgG1 variant E380(405)A/N434(465)A (antibody)
heavy: not shown
light: B1 light
notes: also called IG2 269
ratio to native IgG1 [6]: 1.02 | ratio to native IgG1 [7]: 1.02 | ratio to native IgG1 [8]: 1.05 | ratio to native IgG1 [9]: 8

B15: anti-IgE E27 IgG1 Asn434Ala (antibody)
heavy: not shown
light: B1 light
ratio to native IgG1 [10]: 1 ratio | ratio to native IgG1 [11]: 3.46 ratio | ratio to native IgG1 [12]: 0.97 ratio | ratio to native IgG1 [13]: 0.96 ratio | ratio to native IgG1 [14]: 0.77 ratio | fold better binding than native IgG1 [15]: 3.5 fold

B16: anti-IgE E27 IgG1 Glu380Ala/Asn434Ala (antibody)
heavy: not shown
light: B1 light
fold better binding than native IgG1 [15]: > 8 fold

The next lines start with the values.

binding result [1]: binds | percentage of the wild type [2]: 102% | percentage of the wild type [3]: 83% | percentage of the wild type [4]: 94% | percentage of the wild type [5]: 72%
B2: anti-IgE E27 IgG1 K320A (antibody)
heavy: not shown
light: B1 light

ratio to native IgG1 [16]: 0.72 ratio | ratio to native IgG1 [17]: 0.77 ratio | ratio to native IgG1 [18]: 0.78 ratio | ratio to native IgG1 [11]: < 0.1 ratio | ratio to native IgG1 [19]: 1.25 ratio
B5: anti-IgE E27 IgG1 His435Ala (antibody)
heavy: not shown
light: B1 light

binding result [1]: binds | percentage of the wild type [2]: 93% | percentage of the wild type [3]: 106% | percentage of the wild type [4]: 113% | percentage of the wild type [5]: 104%
B7: anti-IgE E27 IgG1 E318A (antibody)
heavy: not shown
light: B1 light
notes: also called Glu318Ala

reduction in binding against native IgG1 [20]: 50% | binding result [21]: no binding
B11: anti-IgE E27 IgG1 Ser267Gly (antibody)
heavy: not shown
light: B1 light

ratio to native IgG1 [16]: 0.91 ratio | ratio to native IgG1 [17]: 0.93 ratio | ratio to native IgG1 [18]: 0.91 ratio | ratio to native IgG1 [11]: < 0.1 ratio | ratio to native IgG1 [19]: 0.99 ratio
B12: anti-IgE E27 IgG1 Tyr436Ala (antibody)
heavy: not shown
light: B1 light

fold better binding than native IgG1 [15]: 13 fold
B13: anti-IgE E27 IgG1 Thr307Ala/Glu380Ala/Asn434Ala (antibody)
heavy: B6 heavy
light: B1 light

ratio to native IgG1 [16]: 1.15 ratio | ratio to native IgG1 [17]: 0.97 ratio | ratio to native IgG1 [18]: 0.73 ratio | ratio to native IgG1 [11]: < 0.1 ratio | ratio to native IgG1 [19]: 0.96 ratio
B14: anti-IgE E27 IgG1 Ser254Ala (antibody)
heavy: not shown
light: B1 light
